In patent publication US7144731B2, “SCF antibody compositions and methods of using the same” (Amgen Inc., priority 1989, dated 2006):

Tests used:
[1] = system: peripheral blood mononuclear cells of normal donors; assay: BFU-E assay, peripheral blood of normal donors; type: cell-based; conditions: Homo sapiens, PBMC; in the presence of the three concentrations of HuSCF (10, 100, 1000 ng/ml); read-out: IC50 (fifty percent inhibitory concentration) of zidovudine for BFU-E
Description: Peripheral blood mononuclear cells were isolated from leukopaks and peripheral blood using ficoll-hypaque sedimentation followed by extensive washing with Hank's Balance Salt Solution (HBSS). Blood cells were enumerated and viability ascertained by trypan blue dye exclusion.
Assays for BFU-E were performed in a standard protocol using normal human bone marrow as the control. Heparinized blood was diluted with an equal volume of HBSS (GIBCO, Grand Island, N.Y.), layered over Ficol-Paque (Pharmacia, Piscataway, N.J.) and centrifuged at 400 g for 30 minutes at room temperature. Light density cells (s.g. <1.077) were collected and washed twice in HBSS. Cells were resuspended in Iscove's Medium with 10% Fetal Bovine Serum (GIBCO, Grand Island, N.Y.) at a concentration of 1×10^7/ml. […] Erythroid burst colonies were scored after 14 days of culture in a humidified atmosphere containing 5% CO2. Each assay was done in duplicate and colonies with >50 cells present on day 14 with hemoglobinization were scored as BFU-E.
The 50% inhibitory concentration for zidovudine was calculated by expressing the mean of four determinations of BFU-E for each level of zidovudine and huSCF as a percentage of control (no added zidovudine). […] The 50% inhibitory concentration was calculated by interpolation and the value used as the exponent for the base of 10. […]

HIV = conditions: other studies; cited from earlier work
normal human bone marrow = assay: Human CFU-GM assay; type: cell-based; conditions: average of triplicate cultures; SCF = COS-1 supernatant 4 days after transfection
human bone marrow = assay: Human bone marrow colony assay; type: cell-based; conditions: agar colony assay, factors alone or combined
Description: The cDNA of human SCF corresponding to amino acids 1–162 obtained by PCR reactions outlined in Example 3D, was expressed in COS-1 cells as described for the rat SCF in Example 4. COS-1 supernatants were assayed on human bone marrow as well as in the murine HPP-CFC and MC/9 assays. […] The culture conditions of the assay were as follows: human bone marrow from healthy volunteers was centrifuged over Ficoll-Hypaque gradients (Pharmacia) and cultured in 2.1% methyl cellulose, 30% fetal calf serum, 6×10^−5 M 2-mercaptoethanol, 2 mM glutamine, ISCOVE'S medium (GIBCO), 20 U/ml EPO, and 1×10^5 cells/ml for 14 days in a humidified atmosphere containing 7% O2, 10% CO2, and 83% N2. Only those colonies of 0.2 mm in size or larger are indicated.
Recombinant human SCF was tested in agar colony assays on human bone marrow in combination with other growth factors as described above.

KG-1 = KG-1 soft agar cloning assay; type: cell-based, human; conditions: 50 μl assayed (5 ng/ml)
Description: Another activity of recombinant human SCF is the ability to cause proliferation in soft agar of the human acute myelogenous leukemia (AML) cell line, KG-1 (ATCC CCL 246). COS-1 supernatants from transfected cells were tested in a KG-1 agar cloning assay [Koeffler et al., Science, 200, 1153–1154 (1978)] essentially as described except cells were plated at 3000/ml.

[2] = target: T1, SCF receptor (OCIM1 plasma membrane) (Homo sapiens, UniProt P10721); assay: SCF radioreceptor assay; type: binding; conditions: E. coli derived
T1 construct: endogenous in cells; host or cells: OCIM1 human erythroleukemic cells, plasma membrane preparation
Description: OCIM1 cells, [Papayannopoulou et al., Blood 72:1029–1038 (1988)] are a human erythroleukemic cell line expressing many human SCF receptors per cell. These cells are grown in Iscove's Modified Dulbecco's Medium, 10% FBS, and 1× glutamine and passaged 3 times a week to 1×10^5 cells/ml.
Preparation of the OCIM1 plasma membrane is as follows with all steps performed on ice.
First, 40 T175 flasks of cells were grown-up in OCIM1 culture medium, for a total of 1.9×10^9 […]. The conditioned medium and 1 mM Phenyl Methyl Sulfonyl Fluoride (PMSF) protease inhibitor, was spun down in 8×250 ml tubes at 1000 rpm for 10 minutes at 4° C. Cells were washed with PBS and repelleted in 4×50 ml centrifuge tubes at 1000 rpm for 10 minutes at 4° C. Cells were resuspended in 20 ml ice cold PBS with glucose sodium pyruvate (Gibco Cat #310-4287). The 20 ml cell solution was put into a pre-pressurized, pre-chilled (4° C.) “cell bomb” designed to lyse the cells. Cells were pressurized at 400–650 PSI for 10 minutes to establish equilibrium. When the pressure is released cell lysis occurs.
At this point the cells were checked for the percentage of cell lysis. 90% lysis was common. The cell suspension was resuspended in 80 mls sucrose buffer (0.25M sucrose, 10 mM Tris, 1 mM EDTA in double distilled (dd) H2O, filtered through a 0.45 u filter, pH 7.0) and divided between two 40 ml screwcap tubes. Tubes were spun at 5900 RPM for 10 minutes in a Beckman J2-21 centrifuge, JA-20 rotor at 4° C. The supernatants were saved and spun one more time as above to further remove any unwanted material. Supernatants were saved and distributed equally into 2 nalgene 40 ml centrifuge tubes. These supernatants were centrifuged at 16,000 RPM 4° C. for 30 min. in J2-21 centrifuge, JA-20 rotor. These supernatants were discarded being careful to save pellets. Each pellet was resuspended in sucrose buffer so there were 20 mls per tube in 4×36 ml plastic ultracentrifuge tubes. Using a 20 ml syringe and a large trochar, the solution was carefully underlayered in each tube with ice cold 36% sucrose solution (36.1 g sucrose/100 mls ddH2O), bringing the level of the liquid to within 2 mm of the top of the tube. Without disturbing the interface, each tube was carefully placed into each of […] titanium ultracentrifuge tubes. Tubes were centrifuged at 27,000 RPM, 4° C. for 75 minutes in an ultracentrifuge. These tubes were carefully removed from the rotor and from titanium buckets, placed in a rack with the 36% sucrose interface visible. The membraneous material at the interface was collected with a pasteur pipet and transfered into 2 clean nalgene 40 ml centrifuge tubes. Volume was brought up to 40 mls with ice cold sucrose buffer. Tubes were balanced and centrifuged as before at 5900 RPM in J2-21 centrifuge. […]

normal baboons = assay: In vivo activity in normal primates
UT-7 cells = assay: UT-7 ^3H-thymidine uptake assay; type: cell-based, human; conditions: E. coli derived
Description: UT-7 cells are a human megakaryocyte, huGM-CSF responsive cell line obtained from John Adamson, New York Blood Center, New York, N.Y. UT-7 cells were cultured in Iscove's Modified Dulbecco's Medium, 10% FBS, 1× glutamine, 5 \g/ml huGM-CSF. Cells are passaged twice a week at 1×10^5 cells/ml.
Cells were washed twice in phosphate buffered saline (PBS) and resuspended in RPMI medium with 4% FBS and glutamine penicillin streptomycin (GPS) (Irvine Scientific Cat No. 9316 used at 1% volume per volume) at 4×10^4 cells/ml before use. Human SCF along with specific samples were added to 4000 cells/well in 96 well plates and were cultured for 72 hrs. 0.5 uCi/well of ^3H-Thymidine was then added to each plate, plates were harvested and counted 4 hours later.

control marrow = assay: BFU-E culture of control marrow; type: cell-based, human; conditions: with EPO
From the text: (§1) Another bone marrow failure disorder which is responsive to SCF is Diamond-Blackfan anemia (DBA) or congenital pure red cell aplasia. This congenital abnormality results in a selective defect in the production of red blood cells and often results in chronic transfusion dependency. […] This pattern of response reflects an intrinsic defect in the receptor for SCF (c-kit) on the progenitor cell. In either case (abnormal production of SCF by the microenvironment or decreased stimulation of the hematopoietic progenitor by SCF) SCF overcomes the block to hematopoiesis which characterizes bone marrow failure syndromes such as DBA.

[3] = system: bone marrow from patients with DBA; assay: BFU-E culture of Diamond-Blackfan anemia marrow; type: cell-based, human
From the text: as §1

[4] = system: dog with cyclic neutropenia; assay: Canine cyclic neutropenia; type: in vivo; conditions: rcanineSCF 100 mg/kg/day s.c. over several weeks
Description: Cyclic neutropenia, in particular, is a defect in the regulation of stem cell division since other lineages (e.g., platelet, erythrocyte and monocyte) are also effected. […] A typical dog with cyclic neutropenia was treated with rcanineSCF (recombinant canine SCF) at […] subcutaneously over several weeks. […] Thus, SCF is useful in treating a variety of bone marrow failure syndromes, either alone or in combination with other hematopoietic growth factors.

Lewis rats = assay: SCF and G-CSF in Lewis rats; type: in vivo, rat
Description: Quantitative peripheral blood and bone marrow differentials were performed at various timepoints as previously described [Hulse, Acta Haematol. […] J. Physiol. […] Histologic examination of the spleen was performed with Bouin's-fixed paraffin-embedded sections stained with hematoxylin-and-eosin as well as by the Giemsa method. The numbers of normoblasts, megakaryocytes, and mast cells per 400× or 1000× high power field (HPF) in the spleen was quantitated by counting the number of each cell type in randomly selected fields of the red pulp. Increases in circulating numbers of neutrophils over extended time periods were when so stated calculated by planimetry as previously described. […] Data is expressed as the mean plus-or-minus one standard deviation and statistical analysis is by the unpaired t-test.

[5] = 6 hours after a single injection

Cc1cn([C@H]2C[C@H](N=[N+]=[N-])[C@@H](CO)O2)c(=O)[nH]c1=O [zidovudine]
IC50 [1]: 2.65 to 1380 µM

GM-CSF: human granulocyte-macrophage colony stimulating factor
replication of HIV in partially purified primary peripheral blood monocytes (HIV): significantly increase replication of HIV
Colony #/100,000 cells (±SEM) (normal human bone marrow): 7 ± 1
Colony #/10^5 cells (14 Days) (human bone marrow): 14 ± 2
Colony #/3000 Cells ± SD (KG-1): 14 ± 5

Human SCF^1-165: recombinant human [Met^−1]SCF^1-165 expressed in E. coli
competition with binding of human [^125I][Met^−1]SCF^1-164 [2]: compete equally well
in vivo biological activity in primates compared with human SCF^1-164 (normal baboons): same in vivo biological activity
stimulation of UT-7 proliferation, comparison (UT-7 cells): equally active

SCF: stem cell factor added to DBA and control marrow cultures; form not specified
increase in frequency of BFU-E (control marrow): 1.5 fold
increase in the frequency of BFU-E ([3]; majority of patients, ≤10 ng/ml SCF, with EPO): approximately 3 fold
SCF concentration giving an increase in the frequency of BFU-E ([3]; other group of patients with DBA): greater than or equal to 50 ng/ml

B1: G-CSF: human granulocyte colony-stimulating factor (protein, UniProt P09919 31-207, looked up)
Granulocyte …: TPLGPASSLPQSFLLKCLEQVRKIQGDGAALQEKLVSECATYKLCHPEELVLLGHSLGIPWAPLSSCPSQALQLAGCLSQLHSGLFLYQGLLQALEGISPELGPTLDTLQLDVADFATTIWQQMEELGMAPALQPTQGAMPAFASAFQRRAGGVLVASHLQSFLEVSYRVLRHLAQP
Colony #/100,000 cells (±SEM) (normal human bone marrow): 24 ± 1
Colony #/10^5 cells (14 Days) (human bone marrow): 32 ± 3
neutrophil cycling [4]: increases the frequency and amplitude of neutrophil cycling, but does not eliminate it
time of peak neutrophilia after a single injection (Lewis rats; 25 ug/rat i.v.): 12 h
decrease in mature marrow neutrophils vs carrier control (Lewis rats; [5]): 44%
mature marrow neutrophils (Lewis rats; [5]): 5.55±0.5 ×10^6 PMN/humerus
myeloblasts and promyelocytes in marrow vs carrier controls (Lewis rats; 6 hours after single injection): significant increase in myeloblasts and promyelocytes
mature neutrophils in bone marrow (Lewis rats; 24 hours after daily injection for one week): 28.5±2.1 ×10^6 PMN/humerus
circulating neutrophils (Lewis rats; daily 25 ug/rat for one week, 24 hours after the last injection): 10.6±3.6 ×10^3 PMN/mm^3
morbidity and thrombocytopenia (Lewis rats; daily for one week): None of the rats
circulating neutrophils (Lewis rats; daily for one week, 12 hours after the last (seventh) injection): 25.3±0.3 ×10^3 PMN/mm^3
number of megakaryocytes in the spleen (Lewis rats; per 400× HPF, daily for one week): 2.0±1.1
number of normoblasts in the spleen (Lewis rats; per 1,000× HPF, daily for one week): 0±0
